Measured values reported in patent US20250243271A1 (ALCEA THERAPEUTICS, published 2025).

T1: Recombinant human Notch4 (human, UniProt Q99466 24-1447, limits assumed)
T1 construct: also called Notch4 analyte; Notch4 (antigen)
T1 sequence: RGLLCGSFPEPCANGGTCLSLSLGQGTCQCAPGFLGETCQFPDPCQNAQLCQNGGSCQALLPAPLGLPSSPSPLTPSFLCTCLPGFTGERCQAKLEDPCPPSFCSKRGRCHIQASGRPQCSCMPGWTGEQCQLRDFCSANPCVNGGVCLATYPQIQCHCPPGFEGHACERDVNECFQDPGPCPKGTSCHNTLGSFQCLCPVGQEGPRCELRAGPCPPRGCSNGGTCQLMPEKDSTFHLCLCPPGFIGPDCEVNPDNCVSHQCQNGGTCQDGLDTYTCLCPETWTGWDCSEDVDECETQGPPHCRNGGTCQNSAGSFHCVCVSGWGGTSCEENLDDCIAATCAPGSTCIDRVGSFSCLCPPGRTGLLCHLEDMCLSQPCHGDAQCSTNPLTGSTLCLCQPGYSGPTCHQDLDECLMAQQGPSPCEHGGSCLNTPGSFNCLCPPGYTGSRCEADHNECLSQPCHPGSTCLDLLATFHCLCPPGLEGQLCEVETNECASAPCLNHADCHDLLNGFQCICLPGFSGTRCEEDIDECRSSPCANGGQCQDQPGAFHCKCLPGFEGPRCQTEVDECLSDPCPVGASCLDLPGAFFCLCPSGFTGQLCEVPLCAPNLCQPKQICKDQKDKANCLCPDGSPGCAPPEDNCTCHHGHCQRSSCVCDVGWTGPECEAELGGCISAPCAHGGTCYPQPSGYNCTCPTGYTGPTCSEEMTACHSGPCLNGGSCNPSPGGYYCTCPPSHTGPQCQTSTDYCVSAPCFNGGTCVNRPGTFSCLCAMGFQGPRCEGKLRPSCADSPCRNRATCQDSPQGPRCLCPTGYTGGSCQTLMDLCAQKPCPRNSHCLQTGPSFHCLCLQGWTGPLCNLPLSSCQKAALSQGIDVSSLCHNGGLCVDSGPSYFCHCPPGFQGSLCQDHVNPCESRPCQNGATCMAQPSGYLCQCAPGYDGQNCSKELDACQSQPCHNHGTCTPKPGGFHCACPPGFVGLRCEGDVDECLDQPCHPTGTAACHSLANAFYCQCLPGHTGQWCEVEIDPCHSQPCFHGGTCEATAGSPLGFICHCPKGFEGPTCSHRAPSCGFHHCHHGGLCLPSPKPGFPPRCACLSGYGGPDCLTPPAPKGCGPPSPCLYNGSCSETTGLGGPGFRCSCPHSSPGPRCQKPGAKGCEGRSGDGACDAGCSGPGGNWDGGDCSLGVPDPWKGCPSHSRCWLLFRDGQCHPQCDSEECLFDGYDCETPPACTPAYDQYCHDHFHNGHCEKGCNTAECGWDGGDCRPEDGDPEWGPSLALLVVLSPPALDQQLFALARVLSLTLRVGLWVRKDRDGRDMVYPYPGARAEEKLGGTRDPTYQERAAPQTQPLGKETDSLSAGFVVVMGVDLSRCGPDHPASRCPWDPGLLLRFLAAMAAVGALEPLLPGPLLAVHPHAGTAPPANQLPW


The binders below were run against T1, Recombinant human Notch4 (assay: SPR, antibody captured by anti-human IgG Fc on HC30M chip, Notch4 as analyte).
Procedure: Binding kinetics measurements. Following expression and purification, clones were characterized using surface plasmon resonance (SPR) to determine binding kinetics and epitope binding activity. HC30M chips (polycarboxylate hydrogel surfaces having medium charge density and 30 nm coating thickness) were coated with anti-human Fc antibodies (unlabeled goat anti-human IgG Fc from Southern Biotech) to capture the candidate antibodies. Candidate antibodies were diluted to 10 μg/mL in HEPES-buffered saline Tris-EDTA (HBSTE)) and exposed to the surfaces for 15 minutes. After stabilizing baseline using HBSTE, Notch4 analytes were injected sequentially from a lowest concentration of 0.41 nM to a highest concentration of 300 nM. (Notch4 was diluted in HBSTE+0.5 mg/mL bovine serum albumin (BSA) to obtain a series of 3-fold dilutions.) To assess specificity, experiments were also run using Notch2 as an analyte in a single injection at 100 nM in HBSTE+0.5 mg/mL.

Binder | Kd [nM]
iggrefmat 3-4 (antibody, V domains shown, Tested as an antibody captured by anti-human IgG Fc; also called D11-Lib4-Pl1) VH: EVQLVQSGAEVKKPGASVKVSCKASGYTFSDHYISWVRQAPGQGLEWMGWMNPTSGHTNYAQKLQGRGTMTTDPSTSTAYMELRSLRSDDTAVYYCARVSGRWLPAVDGHYYYYYGMDVWGQGTTVTVSS VL: ESALTQPASVSGSPGQSITISCTGTGSNIGAGYGVSWYQQHPGKAPKLMIYANINRPPGVSNRFSGSKSGNTASLTISGLQAEDEADYYCSSYTSSSWMFGGGTKLTVL | 2.6
iggrefmat 1-34 (antibody, V domains shown, Tested as an antibody captured by anti-human IgG Fc) VH: QVQLVQSGAEVKKPGASVKVSCKVSGYTLTKSSIHWVRQAPGKGLEWMGGINPSAGTRIYAQKFQGRVTMTEDTSTDTAYMELSSLKSEDTAVYYCVRGSNPNVWGKGTTVTVSS VL: DIQMTQSPSSVSASVGDRVTITCRASQTIGNYLAWYQQKPGKAPKLLIYKASTLASGVPSRFSGSGSGTDFTLTISSLQPEDFANYYCQQYNFYPRTFGGGTKVEIK | 1.5
iggrefmat 2-12 (antibody, V domains shown, Tested as an antibody captured by anti-human IgG Fc; also called E08-Lib3-Pl1) VH: EVQLVESGGGLVQPGGSLRLSCAASGFSFGTYSMSWVRQAPGKGLELVASIDTAGTPYYPDSVKGRFTISRDNAKNSLYLQMNSLRAEDTAVYYCARSYSGYDPYDAFDIWGQGTMVTVSS VL: DIVMTQSPLSLPVTPGEPASISCRSSRSLVHGSGDNYLHWYLQKPGQSPQLLIYDASNRFSGVPDRFSGSGSGTDFTLKISRVEAEDVGVYYCAQTLQIPLTFGGGTKVEIK | 5.6
iggrefmat 2-16 (antibody, V domains shown, Tested as an antibody captured by anti-human IgG Fc; also called C07-Lib3-Pl1) VH: QVQLVESGGGLVQPGGSLRLSCAASGLTFSGSAMSWVRQAPGKGLELVASITGSGTRTYYPDSVKGRFTISRDNAKNSLYLQMNSLRAEDTAVYYCARGLHAFDIWGQGTMVTVSS VL: DIVMTQSPLSLPVTPGEPASISCRSSQSLLSSYGYHNLHWYLQKPGQSPQLLIYMGYNRASGVPDRFSGSGSGTDFTLKISRVEAEDVGVYYCMQGMHLPITFGGGTKVEIK | 1.5
iggrefmat 3-13 (antibody, V domains shown, Tested as an antibody captured by anti-human IgG Fc; also called C11-Lib4-Pl1) VH: EVQLVQSGAEVKKPGASVKVSCKASGFPFSTSAISWVRQAPGQGLEWMGWMDPATGQTNYAQKLQGRGTMTTDPSTSTAYMELRSLRSDDTAVYYCARALRYCSGGRCQGFHGMDVWGQGTTVTVSS VL: ESALTQPASVSGSPGQSITISCTGTNIAAKSVSWYQQHPGKAPKLMIYANINRPPGVSNRFSGSKSGNTASLTISGLQAEDEADYYCSSYTSSSWMFGGGTKLTVL | 2.5

The remaining lines, values ahead:

Kd [nM] | Binder
0.38 | iggrefmat 6-16 (antibody, V domains shown, Tested as an antibody captured by anti-human IgG Fc) VH: EVQLVESGGGLVQPGRSLRLSCAASEFSFSRFDMHWVRQAPGKGLEWVSAISSSGSYKDYADSVEGRFTISRDNAKNSLYLQMNSLRAEDTAVYYCAREAYGDYGKPFDYWGQGTLVTVSS VL: DIQMTQSPSSLSASVGDRVTITCRASQSISRNLAWYQQKPGKAPKLLIYAGSTLQRGVPSRFSGSGSGTDFTLTISSLQPEDVATYYCLQANMYPLTFGGGTKV
1.5 | iggrefmat 1-12 (antibody, V domains shown, Tested as an antibody captured by anti-human IgG Fc; also called C02-Lib1_Pl1) VH: QVQLVQSGAEVKKPGASVKVSCKVSGYPFSNYAIHWVRQAPGKGLEWMGGISPYTGKTIYAQKFQGRVTMTEDTSTDTAYMELSSLKSEDTAVYYCAFSRYYYDSSGYHGDAFDIWGQGTMVTVSS VL: DIQMTQSPSSVSASVGDRVTITCRASQGISNHLAWYQQKPGKAPKLLIYDASNRATGVPSRFSGSGSGTDFTLTISSLQPEDFANYYCQQSFTIPSFGGGTKVEIK
1.6 | G04-Lib6-Pl2 (antibody, V domains shown, Tested as an antibody captured by anti-human IgG Fc) VH: EVQLVQSGAEVKKPGASVKVSCKASGYSFTKSGIHWVRQAPGQGLEWMGWINPRTGNINYAQKLQGRGTMTTDPSTSTAYMELRSLRSDDTAVYYCARTHLGSSSSPPGYYYGMDVWGQGTTVTVSS VL: ESALTQPASVSGSPGQSITISCTGTNIGAKAVSWYQQHPGKAPKLMIYAENKRPSGVSNRFSGSKSGNTASLTISGLQAEDEADYYCQAWDNRAILFGGGTKLTVL
